± gives the uncertainty stated by the source.
B1: Histone H1t, residues 44 to 112; numbered along this chain, P22492 (parent)
chain: VSKLITEALSVSQERVGMSLVALKKALAAAGYDVEKNNSRIKLSLKSLVNKGILVQTRGTGASGSFKLS

Variants of: B1
Assay: abundance fitness (aPCA) (normalised: wild type 0, dead -1); higher = more abundant; growth selection in yeast, the domain comes from the species named
Details: Homo sapiens

Abundance fitness: each site, then its substitutions
L68: E -0.099 ± 0.068 | M -0.082 ± 0.037 | S -0.115 ± 0.039
S65: H -0.084 ± 0.08 | G -0.003 ± 0.039 | T 0.062 ± 0.03 | N 0.008 ± 0.073 | A 0.031 ± 0.046 | Q 0.039 ± 0.031 | F -0.146 ± 0.17 | K -0.049 ± 0.029 | E 0.175 ± 0.053 | R -0.285 ± 0.03
S63: Y -0.204 ± 0.06 | F -0.028 ± 0.051 | D 0.029 ± 0.08 | H 0.025 ± 0.058 | R -0.133 ± 0.044 | T 0.004 ± 0.039 | G 0.085 ± 0.044 | N -0.113 ± 0.083 | K -0.019 ± 0.043 | C -0.54 ± 0.21 | Q 0.057 ± 0.04 | I -0.045 ± 0.057 | P -0.027 ± 0.033 | E 0.152 ± 0.063 | L 0.006 ± 0.028 | V -0.006 ± 0.046
T57: P -0.061 ± 0.03 | S -0.039 ± 0.033 | Q -0.013 ± 0.032 | N -0.058 ± 0.057 | V -0.052 ± 0.044 | R -0.036 ± 0.032 | W -0.252 ± 0.049 | M -0.048 ± 0.034 | Y -0.133 ± 0.059
A62: D 0.008 ± 0.11 | T -0.006 ± 0.026 | Q 0.021 ± 0.025 | R -0.072 ± 0.028 | N 0.073 ± 0.045 | G 0.104 ± 0.03 | P -0.013 ± 0.026 | E 0.133 ± 0.037 | K 0.054 ± 0.026 | H -0.054 ± 0.042
G64: N -0.373 ± 0.29 | K 0.031 ± 0.069 | M 0.165 ± 0.043 | Y -0.051 ± 0.081 | L 0.05 ± 0.031 | V 0.154 ± 0.054 | T 0.11 ± 0.04 | D -0.013 ± 0.21 | I 0.103 ± 0.12 | E 0.054 ± 0.14 | S 0.046 ± 0.03 | R -0.026 ± 0.039 | C 0.275 ± 0.063 | A 0.196 ± 0.051 | W -0.097 ± 0.039 | F -0.067 ± 0.057 | Q 0.085 ± 0.055 | H -0.209 ± 0.088 | P 0.168 ± 0.03
G59: D 0.025 ± 0.078 | N -0.186 ± 0.091 | S -0.113 ± 0.033 | R -0.146 ± 0.033 | A -0.148 ± 0.04 | E -0.086 ± 0.053 | L -0.049 ± 0.028 | Y -0.222 ± 0.064 | H -0.13 ± 0.049 | C -0.015 ± 0.068 | M -0.152 ± 0.042 | P -0.138 ± 0.03 | Q -0.079 ± 0.036 | I 0.119 ± 0.07 | F -0.074 ± 0.058 | V -0.09 ± 0.04 | K 0.001 ± 0.046
